Test system: COc1ccccc1O
Assay: purified protein
Conditions: H2O2 (0.2 mM in methods, ~20 μM in table note), 50 mM sodium phosphate pH 7.0, 20 °C, guaiacol varied 0.08-2.5 mM as printed

“rCsMb (CsMb, Clonorchis sinensis myoglobin) (Clonorchis sinensis)” gave a Km of 81 mM.
